B1: Microtubule protein alp7 (Schizosaccharomyces pombe (strain ATCC 38366 / 972)), Q9URY2 (parent)
chain: MSDIVSSSTDYSRRSPSSSSIGTNETDHTGFHEKRQGASSESLIPPAQRSSEESMPAPKLFPKLTSKPNPQLNLKDTLNKRVSDRLQALELNKSFDFSGTPRPMHPISHPLSQHKTPEFKHRKRNVESILTPKNPSLFSSSNAASQRGSLNTAPSNFAYSHSSSLQTSASSRPPVLSNGSFPRQTNTAPLNPPVHLKDNIRNSATPSTSQADIPTQYPINSTQKQQAKYEAEIEGYKAKLAGTYHEISVLQNTIVNVSGQLIAVNDQLQQLRSGKASTSPSTKDTNMRLVEGHNEETLALQRGKYTQEEVDKLIQERMEKVAEDLHAQYSAKHTQKINAFKANYARKYEATIQELQNQIGTAPNAPKISNSNWEEERRALKADNQTLQKQLEKAIQERQDMSDFLNNFKADMAKSDKLLMQQQSQQTGDLETLRLQLQALQEELRVEREERQQLIQMSEDLVIAMDQLNLEQKS
partner: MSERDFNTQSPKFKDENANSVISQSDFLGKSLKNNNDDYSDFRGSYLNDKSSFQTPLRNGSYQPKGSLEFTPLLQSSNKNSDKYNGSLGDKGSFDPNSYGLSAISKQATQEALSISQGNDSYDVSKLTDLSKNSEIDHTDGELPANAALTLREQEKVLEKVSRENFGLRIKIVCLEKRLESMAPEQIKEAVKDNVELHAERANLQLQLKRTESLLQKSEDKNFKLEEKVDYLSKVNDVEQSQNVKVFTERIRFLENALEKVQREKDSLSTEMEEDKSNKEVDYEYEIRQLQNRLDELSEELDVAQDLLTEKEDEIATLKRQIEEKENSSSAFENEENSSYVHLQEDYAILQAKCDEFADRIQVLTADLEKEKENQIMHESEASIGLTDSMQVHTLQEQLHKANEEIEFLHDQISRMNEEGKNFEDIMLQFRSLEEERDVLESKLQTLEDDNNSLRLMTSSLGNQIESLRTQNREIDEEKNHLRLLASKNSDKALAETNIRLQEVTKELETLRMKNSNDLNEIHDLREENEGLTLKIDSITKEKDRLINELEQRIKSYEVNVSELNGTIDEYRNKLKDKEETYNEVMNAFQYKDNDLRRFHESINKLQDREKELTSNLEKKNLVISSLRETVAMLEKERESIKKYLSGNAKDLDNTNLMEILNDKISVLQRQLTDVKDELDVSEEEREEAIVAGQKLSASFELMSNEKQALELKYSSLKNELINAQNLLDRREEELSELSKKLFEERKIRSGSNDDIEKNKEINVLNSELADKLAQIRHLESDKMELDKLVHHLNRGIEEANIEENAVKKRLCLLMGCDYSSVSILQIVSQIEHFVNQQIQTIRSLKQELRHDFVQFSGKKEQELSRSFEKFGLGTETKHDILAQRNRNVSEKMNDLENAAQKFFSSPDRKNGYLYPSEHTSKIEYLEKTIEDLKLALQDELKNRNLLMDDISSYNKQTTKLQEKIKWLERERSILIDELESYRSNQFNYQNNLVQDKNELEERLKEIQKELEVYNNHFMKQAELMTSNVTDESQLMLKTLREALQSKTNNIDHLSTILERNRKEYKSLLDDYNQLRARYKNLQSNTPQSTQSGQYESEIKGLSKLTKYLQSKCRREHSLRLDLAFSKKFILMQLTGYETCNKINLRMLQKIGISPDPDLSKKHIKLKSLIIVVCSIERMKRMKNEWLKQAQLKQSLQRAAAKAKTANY
B2: Microtubule protein alp7 (Schizosaccharomyces pombe (strain ATCC 38366 / 972)), Q9URY2 (parent)
chain: B1 chain
partner: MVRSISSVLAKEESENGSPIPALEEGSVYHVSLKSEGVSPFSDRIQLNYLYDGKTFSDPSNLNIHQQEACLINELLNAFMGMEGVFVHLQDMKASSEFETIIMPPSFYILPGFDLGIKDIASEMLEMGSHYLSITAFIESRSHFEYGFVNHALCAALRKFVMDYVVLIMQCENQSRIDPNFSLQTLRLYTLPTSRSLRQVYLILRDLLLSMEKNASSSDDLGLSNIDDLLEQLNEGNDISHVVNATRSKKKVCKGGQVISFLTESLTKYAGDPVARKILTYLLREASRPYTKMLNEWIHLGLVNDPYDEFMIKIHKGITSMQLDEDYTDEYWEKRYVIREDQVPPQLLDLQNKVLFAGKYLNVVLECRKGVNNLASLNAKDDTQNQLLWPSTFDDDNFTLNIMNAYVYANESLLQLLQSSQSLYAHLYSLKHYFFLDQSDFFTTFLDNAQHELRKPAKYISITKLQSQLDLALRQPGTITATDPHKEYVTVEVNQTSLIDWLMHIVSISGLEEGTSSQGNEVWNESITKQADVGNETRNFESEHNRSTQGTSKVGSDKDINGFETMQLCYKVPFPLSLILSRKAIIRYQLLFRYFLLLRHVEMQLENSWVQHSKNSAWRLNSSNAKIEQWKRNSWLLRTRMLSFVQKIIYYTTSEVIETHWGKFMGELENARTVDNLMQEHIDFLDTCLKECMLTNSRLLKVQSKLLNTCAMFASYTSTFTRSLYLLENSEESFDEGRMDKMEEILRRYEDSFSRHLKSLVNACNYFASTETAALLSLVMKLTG
B3: Microtubule protein alp7 (Schizosaccharomyces pombe (strain ATCC 38366 / 972)), Q9URY2 (parent)
chain: B1 chain
partner: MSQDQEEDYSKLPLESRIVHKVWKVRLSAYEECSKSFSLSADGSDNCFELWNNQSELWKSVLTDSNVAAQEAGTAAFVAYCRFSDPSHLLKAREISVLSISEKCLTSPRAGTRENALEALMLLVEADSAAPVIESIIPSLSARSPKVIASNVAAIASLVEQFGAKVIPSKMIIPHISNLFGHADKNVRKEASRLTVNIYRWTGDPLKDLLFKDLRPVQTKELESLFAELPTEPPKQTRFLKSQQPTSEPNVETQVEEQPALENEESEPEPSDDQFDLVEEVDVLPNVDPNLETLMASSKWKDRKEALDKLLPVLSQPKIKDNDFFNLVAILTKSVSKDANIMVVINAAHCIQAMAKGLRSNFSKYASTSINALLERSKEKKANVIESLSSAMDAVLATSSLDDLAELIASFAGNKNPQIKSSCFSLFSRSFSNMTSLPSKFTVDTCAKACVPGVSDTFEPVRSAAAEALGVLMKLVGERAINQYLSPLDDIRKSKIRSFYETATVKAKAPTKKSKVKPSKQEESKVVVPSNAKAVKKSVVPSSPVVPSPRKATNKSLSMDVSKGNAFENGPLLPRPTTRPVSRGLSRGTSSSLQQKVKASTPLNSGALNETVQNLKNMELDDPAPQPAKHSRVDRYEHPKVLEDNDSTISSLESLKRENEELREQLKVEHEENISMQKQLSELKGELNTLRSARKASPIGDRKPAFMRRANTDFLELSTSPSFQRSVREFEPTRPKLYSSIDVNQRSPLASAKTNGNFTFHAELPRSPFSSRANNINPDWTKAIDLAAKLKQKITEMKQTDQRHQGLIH

One test covers variants of B1. The following applies: with pcp1_schpo pcp1, Q92351.
On to MSDIVSSSTDYSRRSPSSSSIGTNETDHTGFHEKRQGASSESLIPPAQRSSEESMPAPKLFPKLTSKPNPQLNLKDTLNKRVSDRLQALELNKSFDFSGTPRPMHPISHPLSQHKTPEFKHRKRNVESILTPKNPSLFSSSNAASQRGSLNTAPSNFAYSHSSSLQTSASSRPPVLSNGSFPRQTNTAPLNPPVHLKDNIRNSATPSTSQADIPTQYPINSTQKQQAKYEAEIEGYKAKLAGTYHEISVLQNTIVNVSGQLIAVNDQLQQLRSGKASTSPSTKDTNMRLVEGHNEETLALQRGKYTQEEVDKLIQERMEKVAEDLHAQYSAKHTQKINAFAANAAAAAEATIQELQNQIGTAPNAPKISNSNWEEERRALKADNQTLQKQLEKAIQERQDMSDFLNNFKADMAKSDKLLMQQQSQQTGDLETLRLQLQALQEELRVEREERQQLIQMSEDLVIAMDQLNLEQKS [K341A;Y344A;R346A;K347A;Y348A], for which the “effect of a mutation on the interaction” value is “disrupting interaction”.

Another test covers variants of B2. The settings on record: with spc97_schpo alp4, Q9Y705.
Regarding MSDIVSSSTDYSRRSPSSSSIGTNETDHTGFHEKRQGASSESLIPPAQRSSEESMPAPKLFPKLTSKPNPQLNLKDTLNKRVSDRLQALELNKSFDFSGTPRPMHPISHPLSQHKTPEFKHRKRNVESILTPKNPSLFSSSNAASQRGSLNTAPSNFAYSHSSSLQTSASSRPPVLSNGSFPRQTNTAPLNPPVHLKDNIRNSATPSTSQADIPTQYPINSTQKQQAKYEAEIEGYKAKLAGTYHEISVLQNTIVNVSGQLIAVNDQLQQLRSGKASTSPSTKDTNMRLVEGHNEETLALQRGKYTQEEVDKLIQERMEKVAEDLHAQYSAKHTQKINAFAANAAAAAEATIQELQNQIGTAPNAPKISNSNWEEERRALKADNQTLQKQLEKAIQERQDMSDFLNNFKADMAKSDKLLMQQQSQQTGDLETLRLQLQALQEELRVEREERQQLIQMSEDLVIAMDQLNLEQKS [K341A;Y344A;R346A;K347A;Y348A], the “effect of a mutation on the interaction” value was “disrupting interaction”.

A further test covers variants of B3. The settings on record: with alp14_schpo alp14, O94534.
As to MSDIVSSSTDYSRRSPSSSSIGTNETDHTGFHEKRQGASSESLIPPAQRSSEESMPAPKLFPKLTSKPNPQLNLKDTLNKRVSDRLQALELNKSFDFSGTPRPMHPISHPLSQHKTPEFKHRKRNVESILTPKNPSLFSSSNAASQRGSLNTAPSNFAYSHSSSLQTSASSRPPVLSNGSFPRQTNTAPLNPPVHLKDNIRNSATPSTSQADIPTQYPINSTQKQQAKYEAEIEGYKAKLAGTYHEISVLQNTIVNVSGQLIAVNDQLQQLRSGKASTSPSTKDTNMRLVEGHNEETLALQRGKYTQEEVDKLIQERMEKVAEDLHAQYSAKHTQKINAFAANAAAAAEATIQELQNQIGTAPNAPKISNSNWEEERRALKADNQTLQKQLEKAIQERQDMSDFLNNFKADMAKSDKLLMQQQSQQTGDLETLRLQLQALQEELRVEREERQQLIQMSEDLVIAMDQLNLEQKS [K341A;Y344A;R346A;K347A;Y348A], the “effect of a mutation on the interaction” value is recorded as “disrupting interaction”.

Values taken from IntAct's records for PubMed 24937146.
